The numbers were not newly measured in publication PMC10925690, which cites them from elsewhere.

Series [1] concerns the target FcγRIIIa F158 (Homo sapiens) (UniProt P08637). The series is described as follows: SPR. To be noted: cited from earlier work.
Series [2] has as its target FcγRIIIa V158 (Homo sapiens) (UniProt P08637). The series is described as follows: SPR. As to conditions: cited from earlier work.

FcγRIIIa F158 (Homo sapiens), sequence (P08637 17-254): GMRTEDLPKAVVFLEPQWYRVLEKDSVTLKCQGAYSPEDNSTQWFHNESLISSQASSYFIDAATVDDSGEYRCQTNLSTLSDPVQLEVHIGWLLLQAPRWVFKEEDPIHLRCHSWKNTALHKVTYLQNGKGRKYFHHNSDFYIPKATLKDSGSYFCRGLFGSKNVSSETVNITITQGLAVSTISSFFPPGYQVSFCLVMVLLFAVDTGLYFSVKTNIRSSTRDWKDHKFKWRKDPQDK
FcγRIIIa V158 (Homo sapiens), sequence (P08637 17-254): as above

For the substance IgG1 Fc Fc (from UniProt P01857), the Kd was 2500 nM in series [1] and 400 nM in series [2].

In general, Kd refers to a measure of binding affinity in units of concentration.
